Test results reported in US20260116951A1 (DUCENTIS BIOTHERAPEUTICS, published 2026).

Experiments:
[1] = target: T1, Recombinant Human CD200R, His-tagged (Creative Biomart CD200R1-320H) (human, UniProt Q8TD46 27-266); assay: SPR, CD200R flowed over immobilized CD200-Fc, 25 C, 1:1 fit
T1 construct: Bought; also called human CD200 receptor; not shown: His tag
T1 sequence (looked up): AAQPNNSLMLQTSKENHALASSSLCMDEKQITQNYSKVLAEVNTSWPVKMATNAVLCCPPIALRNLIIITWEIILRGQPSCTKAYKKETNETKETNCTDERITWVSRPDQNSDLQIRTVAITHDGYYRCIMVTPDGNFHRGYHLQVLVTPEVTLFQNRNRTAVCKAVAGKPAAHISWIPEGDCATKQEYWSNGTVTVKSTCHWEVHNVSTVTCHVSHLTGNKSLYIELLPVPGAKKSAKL
Method: (§1) For human CD200 constructs: anti-human Fc (GE Healthcare) was covalently immobilized on a BIAcore CM5 sensor chip (Cytiva, BR100530) by amine coupling using a Cytiva kit (BR100839) following the manufacturer's instructions, targeting immobilization of 8,000-11,000 RU. CD200-Fc proteins were diluted to 0.5 μg/mL to 4 μg/mL in running Buffer (1×HBS-EP+pH7.4 (Cytiva BR100669), HEPES Buffered Saline pH 7.4 containing 3 mM EDTA and 0.05% v/v Surfactant P20) and flowed for 25 to 100 seconds at 10 μL/min over the immobilized Anti-Human IgG Fc, with a stabilization time of 60 seconds. Between 35 and 250 RUs of CD200-Fc were captured, with higher RUs used for cynomolgus CD200R binding experiments. […] Analysis temperature was 25° C. This was followed by regeneration of the surface with 30-90 second pulse of 3M MgCl₂ flowed at […] flow rate followed by stabilization of the surface with 60 second flow of running buffer.
(§2) Curves obtained were fitted to 1:1 Langmuir binding model by setting Rmax and RI as local parameters. Rate equations using standard parameters (e.g. ligand concentration, time) were used for iterative curve fitting. […] Means of 2 experiments carried out on the same day are shown with standard deviation. Residue numbering for CD200 proteins refers to the pre-protein, containing a signal peptide which is cleaved during insertion into the endoplasmic reticulum.

[2] = target: T2, Recombinant Cyno CD200R, His-tagged (Creative Biomart CD200R1-3483C) (cynomolgus monkey); assay: SPR, cyno CD200R1 flowed over immobilized CD200-Fc, 25 C, 1:1 fit, mean of 2 experiments with standard deviation
T2 construct: Bought; also called cynomolgus CD200R1; cynomolgus CD200R
Method: as §1, §2

[3] = target: T3, Human CD200R, full length, on transduced U937 cells (U937-CD200R) (human, UniProt Q8TD46 25-348); assay: cell-based or functional assay
T3 sequence (looked up): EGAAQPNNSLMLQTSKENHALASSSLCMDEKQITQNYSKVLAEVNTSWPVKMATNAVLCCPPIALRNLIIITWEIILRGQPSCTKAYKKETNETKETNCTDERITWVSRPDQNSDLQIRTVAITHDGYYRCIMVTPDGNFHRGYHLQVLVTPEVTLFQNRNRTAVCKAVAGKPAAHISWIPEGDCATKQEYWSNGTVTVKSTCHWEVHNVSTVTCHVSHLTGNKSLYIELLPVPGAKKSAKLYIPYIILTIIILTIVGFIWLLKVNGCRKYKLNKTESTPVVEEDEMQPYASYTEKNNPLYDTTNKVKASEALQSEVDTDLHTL

Human CD200R1L = target: T4, Human CD200R1L (human, UniProt Q6Q8B3 24-239, limits assumed); assay: SPR (BIAcore)
T4 construct: nothing is said of the reagent
T4 sequence (looked up): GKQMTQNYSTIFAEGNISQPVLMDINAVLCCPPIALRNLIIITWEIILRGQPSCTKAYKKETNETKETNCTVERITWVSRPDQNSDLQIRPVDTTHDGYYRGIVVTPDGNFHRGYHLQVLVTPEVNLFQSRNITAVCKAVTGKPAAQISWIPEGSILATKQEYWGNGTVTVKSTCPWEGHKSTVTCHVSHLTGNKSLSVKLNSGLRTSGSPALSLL

[4] = target: T2, Recombinant Cyno CD200R, His-tagged …; assay: SPR (BIAcore T200), CD200-Fc captured on anti-human Fc, cyno CD200R flowed, 25 C, 1:1 fit, mean of two runs
Method: The experiments were performed on a GE Healthcare BIAcore T200. Human, cynomolgus and mouse CD200R proteins were purchased from Creative Biomart (CD200R1-320H, CD200R1-3483C, CD200R1-3280M). All measurements were performed in duplicate.
as §1
For mouse CD200 constructs, muCD200R-Fc (Creative Biomart CD200R1-458M) diluted to 1 μg/mL in running buffer was flowed over the immobilized Anti-Human IgG Fc, with CD200 monomers serially diluted and flowed over captured CD200R. Other details were as above. Data analysis: experimental sensorgrams were analyzed in BIAevaluation software (GE Healthcare). The curves obtained were fitted to 1:1 Langmuir binding model by setting Rmax and RI as local parameters. Rate equations using standard parameters (e.g. ligand concentration, time) were used for iterative curve fitting. Closeness of fit was determined by algorithms provided by the manufacturer in the BIAevaluation software, and data accepted if the Chi² value was less than 10% of Rₘₐₓ, and the U value was less than or equal to 15.

Human PBMCs = target: T5, Human PBMCs; assay: Flow cytometry, % binding on human PBMCs gated on live cells, 1 hour at 37 C, anti-human secondary antibody; the target protein on the cells is not named
T5 construct: No receptor was assigned; also called human PBMCs, gated on live cells
Method: PBMC cells were re-suspended with a density of 0.1 million cells per assay point, with 50 μL FACS buffer (1×PBS+2% FBS). Dilutions of huCD200-Fc in 50 μL were added, starting at 10 μg/mL with 3-fold dilutions up to 10 concentrations with FACS buffer, and incubated for 1-hour at 37° C. At the end of each time point, cells were collected and washed (addition of 200 μL FACS buffer and centrifugation at 1400 RPM). 10 μg/mL of anti-human secondary antibody (Abcam Ab98596) was added together with excess Fc block (Innovex Biosciences no. NB309), and incubated for 30 minutes at 4° C. Cells were washed post incubation and stained to check viability (1 μL dye per million cells per mL 1×PBS, ThermoFisher C34557A) for 20 minutes at 4° C. Cells were washed and fixed with Fixation buffer (100 μL per test, BD Sciences 554655) at 4° C. for 20 minutes. Post incubation, cells were washed and the pellet was re-suspended in FACS buffer (100 μL per test) for data acquisition on the flow cytometer.

[5] = target: T1, Recombinant Human CD200R, His-tagged …; assay: SPR, CD200R flowed over immobilized CD200-Fc, 25 C, 1:1 fit, mean of 2 experiments with standard deviation
Method: as §1, §2

Kd [2]: 206 nM
binding result (Human CD200R1L): no binding
Kd [4]: 206 nM
koff [4]: 0.038 s⁻¹
kon [4]: 186000 M⁻¹ s⁻¹
EC50 (Human PBMCs): 0.29 µg/mL
B1: DS-118 (mutated human CD200-Fc fusion protein, K130Y, I131Y, IgG4 S228P Fc) (Fc fusion)
chain: QVQVVTQDEREQLYTPASLKCSLQNAQEALIVTWQKKKAVSPENMVTFSENHGVVIQPAYKDKINITQLGLQNSTITFWNITLEDEGCYMCLFNTFGFGYYSGTACLTVYVQPIVSLHYKFSEDHLNITCSATARPAPMVFWKVPRSGIENSTVTLSHPNGTTSVTSILHIKDPKNQVGKEVICQVLHLGTVTDFKQTVNKGPPCPPCPAPEFLGGPSVFLFPPKPKDTLMISRTPEVTCVVVDVSQEDPEVQFNWYVDGVEVHNAKTKPREEQFNSTYRVVSVLTVLHQDWLNGKEYKCKVSNKGLPSSIEKTISKAKGQPREPQVYTLPPSQEEMTKNQVSLTCLVKGFYPSDIAVEWESNGQPENNYKTTPPVLDSDGSFFLYSRLTVDKSRWQEGNVFSCSVMHEALHNHYTQKSLSLSLGK
notes: also called mutated CD200-Fc; mutant CD200-Fc
T1/2 [1]: 37.9 min
inhibition of LPS stimulated IL-6 release from U937-CD200R cells, IC50 [3]: 0.01 µg/mL
Kd [5]: 1.3 nM
